Experimental data: PMC7655094
Several values for one entry are separate records, joined by “and”; a condition that tells them apart may be missing. Equal values may be shown once.

Biological target: CD16 expressed by Jurkat-CD16 cells (UniProt P08637)
Assay: flow cytometry on cells

Sequence of UniProt P08637 (P08637 17-254): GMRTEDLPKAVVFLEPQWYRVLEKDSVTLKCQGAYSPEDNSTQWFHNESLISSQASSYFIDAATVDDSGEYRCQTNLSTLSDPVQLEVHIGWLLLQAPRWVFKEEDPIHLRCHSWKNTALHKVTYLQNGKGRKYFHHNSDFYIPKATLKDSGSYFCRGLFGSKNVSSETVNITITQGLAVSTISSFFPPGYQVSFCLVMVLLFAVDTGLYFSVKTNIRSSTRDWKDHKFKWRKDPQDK

MFI of bound competitor anti-CD16-PE/3G8: 25.1 and 28.1 and 21.8
Substance: goat-produced cetuximab (gCetuximab) (antibody)
